Measured values from patent US20120301393A1, “MODIFIED UBIQUITIN PROTEINS HAVING A SPECIFIC BINDING ACTIVITY FOR THE EXTRADOMAIN B OF FIBRONECTIN” (Scil Proteins GmbH, priority 2009, published 2012).
Entries after “also recorded” stand apart in the source; their conditions may differ.

Columns and labels:
[1] = biological target: T1, Human fibronectin lacking the ED-B domain (h6789) (Homo sapiens, UniProt P02751); test: concentration dependent ELISA, negative control fibronectin fragment without ED-B; assay type: binding
T1 construct: fibronectin fragment 6789 without ED-B

[2] = biological target: immobilized ED-B containing fibronectin fragment (67B89) (Homo sapiens, UniProt P02751); test: competitive concentration dependent ELISA; assay type: binding; conditions: in the presence of increasing amounts of free target
Method: Competitive concentration dependent ELISAs analyzed the binding of ubiquitin variant 1041-D11 to immobilized ED-B containing fibronectin fragment […] in the presence of increasing amounts of free target. Conditions of the ELISA were as described for Example 5A, except that 1041-D11 protein was preincubated with ED-B (67B89) (0 μM-10 μM) or also with negative control 6789 (0 μM-10 μM) for 1 h and subsequently the mixture was given to the target 67B89 that was placed on a Medisorp-plate; following this, the variant was detected by the corresponding antibody (anti-Ubiquitin-Fab-POD; dilution 1:6500).

ED-B (67B89) = ED-B (67B89) (Homo sapiens, UniProt P02751); test: concentration dependent ELISA analyzing serum-stability of binding activity; conditions: 1 h at 37° C. in mouse or rat serum
Method: The ELISA is performed using procedures well known in the art and as described above (Example 5A and 5B). ED-B (here referred to as 67B89) is coated to microtiter plates, the variant is bound to ED-B and detected by a specific ubiquitin-antibody (Anti-Ubi-Fab-POD). The variant in this assay is treated in different ways: the variant is incubated in mouse serum for 1 h at 37° C. (see in FIG. 13, circles in blue); the variant is incubated in rat serum for 1 h at 37° C. (in FIG. 13, circles in red); or the variant is incubated PBS for 1 h at 37° C. (in FIG. 13, circles in black).

[3] = biological target: ED-B containing fibronectin fragment (67B89) (Homo sapiens, UniProt P02751); test: label-free interaction assay using Biacore; assay type: binding; conditions: 1:1-Langmuir-fitting
Method: Different concentrations of the variant were analyzed (for example, 0-200 nM of the variant, preferably 1041-D11) for binding to an ED-B containing fibronectin fragment (referred to as 67B89) immobilized on a CM5-chip (Biacore) using methods known to those skilled in the art. The obtained data were processed via the BIAevaluation software and 1:1-Langmuir-fitting. The kinetic binding constants were kon=7.6*10^5 M^−1 s^−1; koff=7.7*10^−4 s^−1. […]

[4] = biological target: fibronectin fragment 67B89 (soluble ED-B) (Homo sapiens, UniProt P02751); test: complex-formation analysis by SE-HPLC with 67B89; assay type: binding; conditions: 0.72 nmol each, 1 h RT
Method: (§1) For the analysis of complex formation, Tricorn Superdex 75 5/150 GL columns (GE-Healthcare) (V=3 ml) was used, protein amount of 50 μl was applied. Further conditions: buffer: 1×PBS, pH 7.3, flow-rate: 0.3 ml/min, run: 45 min (injection of sample: after 15 min). Condition: 0.72 nmol 1041-D11 protein+0.72 nmol ED-B (herein referred to 67B89 or also as a negative control 6789) incubated for 1 h at RT; then applied to column for analysis of complex-formation. In FIG. 14, only the variant is shown in black, only the target ED-B is shown in blue, the variant binding building a complex with ED-B in pink.

[5] = biological target: T2, ED-B free fibronectin fragment 6789 (Homo sapiens, UniProt P02751); test: complex-formation analysis by SE-HPLC with 6789; assay type: binding; conditions: 0.72 nmol each, 1 h RT
T2 construct: fibronectin fragment 6789 without ED-B
Method: as §1

[6] = tested on: human fetal lung fibroblast cells (Wi38); test: binding to cell culture cells, Wi38; assay type: cell-based; conditions: immunofluorescence
Method: (§2) The binding of, for example, variant 1041-D11 to cell culture cells was tested. Different cell culture cells were analysed, including normal human fetal lung fibroblast cells having high expression levels of ED-B (Wi38 cells), a mouse embryonic fibroblast cell line (Balb 3T3); a stromal cell line, derived from mouse bone marrow (ST-2) monocytes/macrophages (RAW 264.7), NHDF cells and murine fibroblast cells (LM).
The negative control cell type NHDF are primary normal fibroblast cells, which express low levels of EDB-fibronectin (data not shown).
The negative control cell type NHDF is primary normal fibroblast cells, which express low levels of EDB-fibronectin. The cells were plated in chamber-slides (NUNC, 60000 cells/ml). To analyses the binding potential the cells were fixed with 100% MeOH for 5 min at −20° C. To block unspecific binding, the cells were incubated with 5% Horse-serum 1 h 37° C. The cells were tested with the variant 1041-D11, an ED-B specific antibody FV28 CH4/F1 as positive control or UB—2 as negative control with different concentrations 1 h RT. The proving occurred about an incubation with rabbit-a-Strep-Tag-IgG (obtained from GenScript A00875, 1:500) for 1 h and incubation with a-rabbit-IgG*Alexa488-AK (obtained from Invitrogen A11008, 1:1000) for 1 h. The nuclei were stained with DAPI. […] The first 2 lines show the variant and positive control on Wi38-cell line.

murine Balb 3T3-cells = test: binding to cell culture cells, Balb 3T3; assay type: cell-based; conditions: 1, 10, 50 nM
Method: as §2
(§3) Similar experiments were performed using different cells types, for example Balb3T3 (ATCC, Kat-Nr. 30-2002), Raw (Lonza, Kat-Nr. BE12-115F/U1), ST-2 (Lonza, Kat-Nr. BE12-115F/U1).

murine ST-2-cells = test: binding to cell culture cells, ST-2; assay type: cell-based; conditions: 1, 10, 50 nM
Method: as §2, §3

[7] = tested on: monocytes/macrophages (RAW 264.7); test: binding to cell culture cells, Raw; assay type: cell-based; conditions: data not shown
Method: as §2, §3

[8] = biological target: T3, ED-B in F9 tumor vasculature (Mus musculus, UniProt P11276); test: immunohistochemistry on F9 tumor tissue sections; design: species or system mice; conditions: seven samples
T3 construct: 1041-D11 specifically decorates the vasculature in tissue sections from F9 tumors; from tissue; host or cells: F9 tumor tissue sections from mice
Method: F9 tumor tissues from seven samples were evaluated. […] ED-B is a highly specific marker for tumor vasculature. The target protein EDB is located on the abluminal side of the vessels. 1041-D11 specifically decorates the vasculature in tissue sections from F9 tumors. […] Thus, fusion proteins based on modified ubiquitin specifically binding to ED-B are suitable an ED-B based targeted therapy for cancer.

[9] = tissue panel staining (48 tissues, FDA relevant panel)
L929 cells = test: L929 apoptosis assay (TNFα activity); assay type: cell-based; conditions: actinomycinD sensitized L929 cells, 48 h; listed as free cytokine; read-out: EC50 value, corresponding TNFα (free cytokine) tested in parallel
Method: The physiological TNFα-activity of TNFα-modified ubiquitin based ED-B binding fusions has been determined using the L929 apoptosis assay (Flick et al., 1984 J. Immunol. Methods. 68:167-175). In this assay, TNF-alpha efficiently stimulates cell death in actinomycinD sensitized cells at EC50 values in the picomolar range.
Cells have been resuspended in medium containing FBS and antibiotics. A cell suspension of 100 μl of a densitiy of 3.5×10^5 cells/ml has been seeded into the wells of a 96 well standard cell culture plate followed by over night incubation in a humidified CO2 incubator. Thereafter, the culture medium has been removed and 50 μl of medium containing FBS, ActinomycinD and antibiotics has been added to each well followed by a further 30 min incubation time. Thereafter, 50 μl of the test items, TNFα-modified ubiquitin based ED-B binding-fusions or the human recombinant TNFαcontrol, at an appropriate concentration range of between 10^−7 and 10^−18 M, have been added. After a further 48 h incubation time the metabolic activity as a measure of cell survival was determined using WST-1 reagent (Roche).
Per test item at least three independent experiments have been conducted, each of them in triplicates. […]
The quantitative evaluation is based on the EC50-value, i.e. the value according to the test item concentration promoting the survival of half of the cells.

Chain of ED-B containing fibronectin fragment (67B89) (P02751 32-2477): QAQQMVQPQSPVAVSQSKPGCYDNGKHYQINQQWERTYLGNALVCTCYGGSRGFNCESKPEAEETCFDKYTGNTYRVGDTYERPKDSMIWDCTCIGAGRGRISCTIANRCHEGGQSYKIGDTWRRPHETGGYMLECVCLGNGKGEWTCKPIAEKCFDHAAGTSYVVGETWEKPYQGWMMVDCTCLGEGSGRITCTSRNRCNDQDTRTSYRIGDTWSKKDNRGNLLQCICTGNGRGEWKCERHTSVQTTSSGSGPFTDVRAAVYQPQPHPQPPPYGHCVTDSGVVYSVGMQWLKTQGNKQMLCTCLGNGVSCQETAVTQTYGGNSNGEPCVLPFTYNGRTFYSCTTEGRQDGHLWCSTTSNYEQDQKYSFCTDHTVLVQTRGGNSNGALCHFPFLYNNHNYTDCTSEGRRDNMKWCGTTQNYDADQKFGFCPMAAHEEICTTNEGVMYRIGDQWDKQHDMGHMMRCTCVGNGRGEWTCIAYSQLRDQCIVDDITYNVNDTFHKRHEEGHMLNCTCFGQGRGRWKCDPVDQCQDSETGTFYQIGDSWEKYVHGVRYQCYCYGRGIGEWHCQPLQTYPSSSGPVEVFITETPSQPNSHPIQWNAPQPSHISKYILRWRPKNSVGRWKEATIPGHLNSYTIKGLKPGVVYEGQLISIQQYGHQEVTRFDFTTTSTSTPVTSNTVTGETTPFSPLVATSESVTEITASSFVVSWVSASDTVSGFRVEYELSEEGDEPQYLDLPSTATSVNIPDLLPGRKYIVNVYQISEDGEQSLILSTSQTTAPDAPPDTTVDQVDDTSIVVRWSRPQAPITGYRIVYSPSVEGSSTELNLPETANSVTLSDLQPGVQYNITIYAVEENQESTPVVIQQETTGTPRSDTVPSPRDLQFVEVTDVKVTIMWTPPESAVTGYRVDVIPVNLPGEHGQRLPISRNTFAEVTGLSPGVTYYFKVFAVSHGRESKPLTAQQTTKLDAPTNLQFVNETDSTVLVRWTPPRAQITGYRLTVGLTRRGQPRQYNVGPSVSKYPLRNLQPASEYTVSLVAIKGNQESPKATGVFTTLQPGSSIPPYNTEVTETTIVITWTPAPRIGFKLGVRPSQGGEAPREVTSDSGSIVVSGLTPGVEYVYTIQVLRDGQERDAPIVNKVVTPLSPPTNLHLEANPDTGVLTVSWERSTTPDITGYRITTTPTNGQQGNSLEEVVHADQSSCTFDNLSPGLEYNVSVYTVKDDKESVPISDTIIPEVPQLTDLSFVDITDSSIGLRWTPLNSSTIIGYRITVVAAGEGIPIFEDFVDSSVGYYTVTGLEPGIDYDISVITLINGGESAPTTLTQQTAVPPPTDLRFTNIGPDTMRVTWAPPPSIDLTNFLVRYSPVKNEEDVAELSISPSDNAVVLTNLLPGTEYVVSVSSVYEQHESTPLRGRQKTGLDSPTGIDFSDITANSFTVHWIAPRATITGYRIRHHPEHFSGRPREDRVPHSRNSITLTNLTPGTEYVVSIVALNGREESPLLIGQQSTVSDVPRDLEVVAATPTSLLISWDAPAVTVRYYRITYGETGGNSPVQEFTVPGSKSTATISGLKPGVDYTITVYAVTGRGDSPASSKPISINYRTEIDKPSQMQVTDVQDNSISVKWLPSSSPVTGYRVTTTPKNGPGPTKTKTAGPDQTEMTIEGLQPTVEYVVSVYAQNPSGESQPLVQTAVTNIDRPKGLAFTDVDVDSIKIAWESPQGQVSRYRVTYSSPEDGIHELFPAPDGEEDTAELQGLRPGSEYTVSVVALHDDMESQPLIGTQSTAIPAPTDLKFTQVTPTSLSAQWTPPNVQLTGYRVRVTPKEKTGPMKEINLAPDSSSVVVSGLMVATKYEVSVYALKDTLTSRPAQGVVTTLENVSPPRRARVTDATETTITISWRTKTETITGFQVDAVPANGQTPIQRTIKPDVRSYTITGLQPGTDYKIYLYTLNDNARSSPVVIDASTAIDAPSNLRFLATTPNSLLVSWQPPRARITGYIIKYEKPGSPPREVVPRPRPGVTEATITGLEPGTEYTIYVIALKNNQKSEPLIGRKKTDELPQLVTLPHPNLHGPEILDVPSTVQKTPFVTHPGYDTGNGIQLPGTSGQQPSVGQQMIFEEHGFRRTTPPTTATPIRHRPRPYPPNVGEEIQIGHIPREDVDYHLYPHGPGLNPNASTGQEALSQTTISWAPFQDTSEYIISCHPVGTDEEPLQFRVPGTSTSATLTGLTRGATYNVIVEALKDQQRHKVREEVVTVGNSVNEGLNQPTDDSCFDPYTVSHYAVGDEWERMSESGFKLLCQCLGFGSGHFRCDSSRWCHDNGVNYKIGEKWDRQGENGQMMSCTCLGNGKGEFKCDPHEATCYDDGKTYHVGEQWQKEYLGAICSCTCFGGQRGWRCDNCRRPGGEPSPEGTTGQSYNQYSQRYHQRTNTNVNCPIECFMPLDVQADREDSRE
Chain of fibronectin fragment 67B89 (soluble ED-B) (P02751 32-2477): as above
T2 sequence (P02751 1089-1449 isoform P02751-1): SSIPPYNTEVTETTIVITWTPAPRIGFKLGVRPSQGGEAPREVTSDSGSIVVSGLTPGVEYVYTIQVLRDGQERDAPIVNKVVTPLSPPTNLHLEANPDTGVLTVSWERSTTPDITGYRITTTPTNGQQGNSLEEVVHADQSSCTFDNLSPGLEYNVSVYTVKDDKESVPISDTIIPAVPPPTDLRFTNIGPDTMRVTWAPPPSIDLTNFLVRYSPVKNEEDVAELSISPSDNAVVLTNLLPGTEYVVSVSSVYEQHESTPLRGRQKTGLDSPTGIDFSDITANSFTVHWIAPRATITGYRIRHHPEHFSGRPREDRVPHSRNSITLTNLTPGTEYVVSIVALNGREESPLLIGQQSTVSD
Chain of immobilized ED-B containing fibronectin fragment (67B89) (P02751 32-2477): as the sequence (P02751 32-2477) above
Chain of ED-B (67B89) (P02751 32-2477): as above
T1 sequence (P02751 1089-1449 isoform P02751-1 limits assumed): as the sequence (P02751 1089-1449 isoform P02751-1) above

| binding to negative control fibronectin fragment without ED-B (6789) [1] | IC50 [2] [nM] | koff [3] [s⁻¹] | kon [3] [M⁻¹ s⁻¹] | staining of F9 tumor tissue sections [8] | Substance | influence of blood serum on binding to ED-B (ED-B (67B89)) | complex formation with 67B89 [4] | complex formation with 6789 [5] | binding to vital Wi38 cells [6] | binding to fixed Wi38 cells ([6]; 58.7 nM and 587 nM) | binding to fixed murine Balb 3T3-cells (murine Balb 3T3-cells) | binding to fixed murine ST-2-cells (murine ST-2-cells) | binding to monocytes/macrophages (Raw) [7] | unspecific staining in 48 tissues of FDA relevant panel [9] | EC50 (L929 cells) [nM] |
| --- | --- | --- | --- | --- | --- | --- | --- | --- | --- | --- | --- | --- | --- | --- | --- |
| no binding | 140 | 0.00077 | 760000 | ED-B specific vascular staining | 1041-D11: hetero-dimeric ubiquitin variant: K6W, L8W, K63R, E64K, S65F, T66P; second module Q2R, K6T, L8Q, Q62W, K63S, E64N, S65W, T66E | not significantly influenced | formation of a complex; also recorded: builds a complex | no significant binding; also recorded: builds no complex | binds to vital Wi38 cells with high specificity | binds to fixed Wi38 cells with high specificity | binds to murine Balb 3T3 cells with high specificity | binds to murine Balb ST-2 cells with high specificity | No binding | no unspecific staining |  |
|  |  |  |  |  | TNFα [reference compound] |  |  |  |  |  |  |  |  |  | 0.00314 ± 0.00359 |
